Results reported in the Human Domainome abundance scans (Beltran et al. 2025).
± gives the uncertainty stated by the source.

B1: Zinc finger protein ZIC 2, residues 250 to 295; numbered along this chain, O95409 (parent)
chain: QCIKQELICKWIDPEQLSNPKKSCNKTFSTMHELVTHVSVEHVGGP

Variants of: B1
Assay: abundance fitness (aPCA) (normalised: wild type 0, dead -1); higher = more abundant; growth selection in yeast, the domain comes from the species named
Conditions: Homo sapiens

Question: For QCIWQELICKWIDPEQLSNPKKSCNKTFSTMHELVTHVSVEHVGGP [K4W], which abundance fitness is on record?
Answer: The abundance fitness was -1.05 ± 0.14.

Question: With QCIPQELICKWIDPEQLSNPKKSCNKTFSTMHELVTHVSVEHVGGP [K4P] as the variant, how does the abundance fitness read?
Answer: Its abundance fitness is -0.236 ± 0.13.

Question: For QCIQQELICKWIDPEQLSNPKKSCNKTFSTMHELVTHVSVEHVGGP [K4Q], which abundance fitness is on record?
Answer: Its abundance fitness is -0.458 ± 0.13.

Question: With QCINQELICKWIDPEQLSNPKKSCNKTFSTMHELVTHVSVEHVGGP [K4N] as the variant, how does the abundance fitness read?
Answer: The abundance fitness was -0.085 ± 0.13.

Question: With QCISQELICKWIDPEQLSNPKKSCNKTFSTMHELVTHVSVEHVGGP [K4S] as the variant, how does the abundance fitness read?
Answer: The abundance fitness was -0.204 ± 0.096.

Question: Which abundance fitness does the source give for QLIKQELICKWIDPEQLSNPKKSCNKTFSTMHELVTHVSVEHVGGP [C2L] here?
Answer: The abundance fitness was 0.73 ± 0.09.

Question: With QGIKQELICKWIDPEQLSNPKKSCNKTFSTMHELVTHVSVEHVGGP [C2G] as the variant, how does the abundance fitness read?
Answer: The abundance fitness was 0.259 ± 0.085.

Question: With QIIKQELICKWIDPEQLSNPKKSCNKTFSTMHELVTHVSVEHVGGP [C2I] as the variant, how does the abundance fitness read?
Answer: Its abundance fitness is 0.605 ± 0.12.

Question: With QKIKQELICKWIDPEQLSNPKKSCNKTFSTMHELVTHVSVEHVGGP [C2K] as the variant, how does the abundance fitness read?
Answer: The abundance fitness was 0.194 ± 0.15.

Question: Which abundance fitness does the source give for QHIKQELICKWIDPEQLSNPKKSCNKTFSTMHELVTHVSVEHVGGP [C2H] here?
Answer: Its abundance fitness is -0.126 ± 0.12.

Question: With QTIKQELICKWIDPEQLSNPKKSCNKTFSTMHELVTHVSVEHVGGP [C2T] as the variant, how does the abundance fitness read?
Answer: The abundance fitness was 0.126 ± 0.12.

Question: For QPIKQELICKWIDPEQLSNPKKSCNKTFSTMHELVTHVSVEHVGGP [C2P], which abundance fitness is on record?
Answer: Its abundance fitness is -0.136 ± 0.13.

Question: With QFIKQELICKWIDPEQLSNPKKSCNKTFSTMHELVTHVSVEHVGGP [C2F] as the variant, how does the abundance fitness read?
Answer: The abundance fitness was -0.182 ± 0.12.

Question: With QRIKQELICKWIDPEQLSNPKKSCNKTFSTMHELVTHVSVEHVGGP [C2R] as the variant, how does the abundance fitness read?
Answer: Its abundance fitness is -0.129 ± 0.085.

Question: For QQIKQELICKWIDPEQLSNPKKSCNKTFSTMHELVTHVSVEHVGGP [C2Q], which abundance fitness is on record?
Answer: Its abundance fitness is 0.127 ± 0.12.

Question: Which abundance fitness does the source give for QSIKQELICKWIDPEQLSNPKKSCNKTFSTMHELVTHVSVEHVGGP [C2S] here?
Answer: The abundance fitness was 0.047 ± 0.088.

Question: For QDIKQELICKWIDPEQLSNPKKSCNKTFSTMHELVTHVSVEHVGGP [C2D], which abundance fitness is on record?
Answer: Its abundance fitness is 0.108 ± 0.13.

Question: With QNIKQELICKWIDPEQLSNPKKSCNKTFSTMHELVTHVSVEHVGGP [C2N] as the variant, how does the abundance fitness read?
Answer: Its abundance fitness is -0.176 ± 0.16.

Question: For QMIKQELICKWIDPEQLSNPKKSCNKTFSTMHELVTHVSVEHVGGP [C2M], which abundance fitness is on record?
Answer: Its abundance fitness is 0.612 ± 0.12.

Question: Which abundance fitness does the source give for QEIKQELICKWIDPEQLSNPKKSCNKTFSTMHELVTHVSVEHVGGP [C2E] here?
Answer: Its abundance fitness is 0.123 ± 0.12.

Question: For QVIKQELICKWIDPEQLSNPKKSCNKTFSTMHELVTHVSVEHVGGP [C2V], which abundance fitness is on record?
Answer: Its abundance fitness is 0.419 ± 0.095.

Question: Which abundance fitness does the source give for QCIKRELICKWIDPEQLSNPKKSCNKTFSTMHELVTHVSVEHVGGP [Q5R] here?
Answer: Its abundance fitness is -0.014 ± 0.091.

Question: Which abundance fitness does the source give for QCIKIELICKWIDPEQLSNPKKSCNKTFSTMHELVTHVSVEHVGGP [Q5I] here?
Answer: The abundance fitness was -0.906 ± 0.11.

Question: Which abundance fitness does the source give for QCIKYELICKWIDPEQLSNPKKSCNKTFSTMHELVTHVSVEHVGGP [Q5Y] here?
Answer: Its abundance fitness is -0.641 ± 0.1.

Question: With QCIKMELICKWIDPEQLSNPKKSCNKTFSTMHELVTHVSVEHVGGP [Q5M] as the variant, how does the abundance fitness read?
Answer: Its abundance fitness is -0.688 ± 0.11.

Question: Which abundance fitness does the source give for QCIKNELICKWIDPEQLSNPKKSCNKTFSTMHELVTHVSVEHVGGP [Q5N] here?
Answer: Its abundance fitness is 0.018 ± 0.093.

Question: With QCIKHELICKWIDPEQLSNPKKSCNKTFSTMHELVTHVSVEHVGGP [Q5H] as the variant, how does the abundance fitness read?
Answer: The abundance fitness was -0.382 ± 0.089.

Question: Which abundance fitness does the source give for QCIKAELICKWIDPEQLSNPKKSCNKTFSTMHELVTHVSVEHVGGP [Q5A] here?
Answer: The abundance fitness was -0.071 ± 0.098.

Question: With QCIKCELICKWIDPEQLSNPKKSCNKTFSTMHELVTHVSVEHVGGP [Q5C] as the variant, how does the abundance fitness read?
Answer: Its abundance fitness is -0.733 ± 0.11.

Question: With QCIKTELICKWIDPEQLSNPKKSCNKTFSTMHELVTHVSVEHVGGP [Q5T] as the variant, how does the abundance fitness read?
Answer: Its abundance fitness is -0.22 ± 0.089.

Question: With QCIKFELICKWIDPEQLSNPKKSCNKTFSTMHELVTHVSVEHVGGP [Q5F] as the variant, how does the abundance fitness read?
Answer: The abundance fitness was -0.612 ± 0.097.

Question: Which abundance fitness does the source give for QCIKEELICKWIDPEQLSNPKKSCNKTFSTMHELVTHVSVEHVGGP [Q5E] here?
Answer: The abundance fitness was 0.242 ± 0.23.

Question: With QCIKDELICKWIDPEQLSNPKKSCNKTFSTMHELVTHVSVEHVGGP [Q5D] as the variant, how does the abundance fitness read?
Answer: The abundance fitness was 0.366 ± 0.11.

Question: Which abundance fitness does the source give for QCIKVELICKWIDPEQLSNPKKSCNKTFSTMHELVTHVSVEHVGGP [Q5V] here?
Answer: The abundance fitness was -0.779 ± 0.11.

Question: Which abundance fitness does the source give for QCIKKELICKWIDPEQLSNPKKSCNKTFSTMHELVTHVSVEHVGGP [Q5K] here?
Answer: The abundance fitness was 0.05 ± 0.11.

Question: For QCIKLELICKWIDPEQLSNPKKSCNKTFSTMHELVTHVSVEHVGGP [Q5L], which abundance fitness is on record?
Answer: Its abundance fitness is -0.661 ± 0.089.

Question: With QCIKGELICKWIDPEQLSNPKKSCNKTFSTMHELVTHVSVEHVGGP [Q5G] as the variant, how does the abundance fitness read?
Answer: The abundance fitness was -0.283 ± 0.13.

Question: Which abundance fitness does the source give for QCIKPELICKWIDPEQLSNPKKSCNKTFSTMHELVTHVSVEHVGGP [Q5P] here?
Answer: Its abundance fitness is 0.037 ± 0.087.

Question: For QCIKWELICKWIDPEQLSNPKKSCNKTFSTMHELVTHVSVEHVGGP [Q5W], which abundance fitness is on record?
Answer: Its abundance fitness is -0.777 ± 0.14.

Question: For QCIKSELICKWIDPEQLSNPKKSCNKTFSTMHELVTHVSVEHVGGP [Q5S], which abundance fitness is on record?
Answer: The abundance fitness was -0.24 ± 0.086.

Question: For QCIKQGLICKWIDPEQLSNPKKSCNKTFSTMHELVTHVSVEHVGGP [E6G], which abundance fitness is on record?
Answer: Its abundance fitness is -0.198 ± 0.14.

Question: For QCIKQFLICKWIDPEQLSNPKKSCNKTFSTMHELVTHVSVEHVGGP [E6F], which abundance fitness is on record?
Answer: Its abundance fitness is -1.04 ± 0.41.

Question: For QCIKQHLICKWIDPEQLSNPKKSCNKTFSTMHELVTHVSVEHVGGP [E6H], which abundance fitness is on record?
Answer: Its abundance fitness is -0.687 ± 0.23.

Question: With QCIKQCLICKWIDPEQLSNPKKSCNKTFSTMHELVTHVSVEHVGGP [E6C] as the variant, how does the abundance fitness read?
Answer: The abundance fitness was -0.632 ± 0.22.

Question: Which abundance fitness does the source give for QCIKQILICKWIDPEQLSNPKKSCNKTFSTMHELVTHVSVEHVGGP [E6I] here?
Answer: Its abundance fitness is -1.62 ± 0.49.

Question: For QCIKQNLICKWIDPEQLSNPKKSCNKTFSTMHELVTHVSVEHVGGP [E6N], which abundance fitness is on record?
Answer: The abundance fitness was -0.264 ± 0.28.

Question: With QCIKQSLICKWIDPEQLSNPKKSCNKTFSTMHELVTHVSVEHVGGP [E6S] as the variant, how does the abundance fitness read?
Answer: The abundance fitness was 0.009 ± 0.19.

Question: With QCIKQYLICKWIDPEQLSNPKKSCNKTFSTMHELVTHVSVEHVGGP [E6Y] as the variant, how does the abundance fitness read?
Answer: The abundance fitness was -0.653 ± 0.26.

Question: For QCIKQALICKWIDPEQLSNPKKSCNKTFSTMHELVTHVSVEHVGGP [E6A], which abundance fitness is on record?
Answer: The abundance fitness was -0.351 ± 0.14.

Question: For QCIKQTLICKWIDPEQLSNPKKSCNKTFSTMHELVTHVSVEHVGGP [E6T], which abundance fitness is on record?
Answer: Its abundance fitness is -0.748 ± 0.37.

Question: With QCIKQLLICKWIDPEQLSNPKKSCNKTFSTMHELVTHVSVEHVGGP [E6L] as the variant, how does the abundance fitness read?
Answer: Its abundance fitness is -0.974 ± 0.31.

Question: With QCIKQWLICKWIDPEQLSNPKKSCNKTFSTMHELVTHVSVEHVGGP [E6W] as the variant, how does the abundance fitness read?
Answer: Its abundance fitness is -0.767 ± 0.22.

Question: Which abundance fitness does the source give for QCIKQRLICKWIDPEQLSNPKKSCNKTFSTMHELVTHVSVEHVGGP [E6R] here?
Answer: Its abundance fitness is -0.312 ± 0.13.

Question: Which abundance fitness does the source give for QCIKQVLICKWIDPEQLSNPKKSCNKTFSTMHELVTHVSVEHVGGP [E6V] here?
Answer: Its abundance fitness is -0.778 ± 0.18.

Question: With QCIKQQLICKWIDPEQLSNPKKSCNKTFSTMHELVTHVSVEHVGGP [E6Q] as the variant, how does the abundance fitness read?
Answer: Its abundance fitness is -0.207 ± 0.21.

Question: Which abundance fitness does the source give for QCIKQKLICKWIDPEQLSNPKKSCNKTFSTMHELVTHVSVEHVGGP [E6K] here?
Answer: Its abundance fitness is -0.687 ± 0.24.
